Earlier results on one molecule are cited in US20240269237A1, “PHARMACEUTICAL COMPOSITION AND KIT COMPRISING AN IMMUNOMODULATORY SUBSTANCE FOR TREATING DISEASES” (ellennbe GmbH, priority 2021, published 2024).

The data set has as its system ankylosing spondylitis (Bechterew's disease). The conditions noted are these: Patient 11, history; within half a year the biologics lost their effect.

B1: certolizumab pegol (antibody, chains of the INN, looked up, V domains shown)
VH: EVQLVESGGGLVQPGGSLRLSCAASGYVFTDYGMNWVRQAPGKGLEWMGWINTYIGEPIYADSVKGRFTFSLDTSKSTAYLQMNSLRAEDTAVYYCARGYRSYAMDYWGQGTLVTVSS
VL: DIQMTQSPSSLSASVGDRVTITCKASQNVGTNVAWYQQKPGKAPKALIYSASFLYSGVPYRFSGSGSGTDFTLTISSLQPEDFATYYCQQYNIYPLTFGQGTKVEIK
For the molecule B1, the “effect of earlier treatment with biologics” value is recorded as “little effect from the outset”.
